Results on 1 protein are retold here after publication PMC4450660, “Biochemical and Structural Characterization of Enolase from Chloroflexus aurantiacus: Evidence for a Thermophilic Origin” (Frontiers in Bioengineering and Biotechnology, 2015).

One may read the Km as the concentration of substrate that gives half-maximal velocity.

Substrate in the data set: O=C(O)[C@@H](CO)OP(=O)(O)O
In words: purified protein. In kind it is biochemical, Chloroflexus aurantiacus. To be noted: 25 °C, pH 6.5, 50 mM Bis-Tris propane, 5 mM MgCl2, crystal structure with 2-PGA in active site, open conformation.

B1: EnoCa (enolase-1 from Chloroflexus aurantiacus) (Chloroflexus aurantiacus J-10-fl) (protein)
chain: MSTLIEAIVAREVLDSRGNPTIEVDVRLESGDVGRAIVPSGASTGAHEALELRDGDKSRYNGKGVLKAVQAVNEDIAEALIGFDAADQIALDQELIALDGTPNKSKLGANAILGVSLAAAKAAAAAFGLPLYRYLGGVYAHVLPVPMMNIMNGGQHATNSTDFQEFMIMPVGAESFREGLRWGAEIYHMLKKVIHDRGFSTTVGDEGGFAPSLPTNDAPLQLIMEAIEKAGYRPGEQIVIALDPATTEIFEDGKYHLKREGRSLSSAEMVDYWVDLVNRYPIISLEDGLAEDDWEGWALLRAKLGDRVQLVGDDFLVTNVQRLQRAIEAKAANSILIKLNQIGSLTETLSAIQLAQRSGWTAVVSHRSGESEDVTIADLVVATNAGQIKTGAPARTDRIAKYNQLLRIEEELGSAARYAGRSAFKV
notes: native protein purified from C. aurantiacus cells, untagged; homodimer, subunit ~46 kDa, total ~92-96 kDa
As for B1, the Michaelis-Menten constant (Km) worked out at 160 ± 10 µM.
